Substitutions are numbered along the chain they refer to.
Experiments:
[1] = biological target: T1, cell surface GPC3 on GPC3-expressing cell lines (HepG2 GPC3^high, Huh7 GPC3^med) (UniProt P51654 25-554); assay: cell-based or functional assay
His-tagged human GPC3 [2] = biological target: T2, His-tagged human GPC3 (human, UniProt P51654 25-559, limits assumed); assay: Octet (BLI); His-tagged GPC3 captured on HIS1K sensors, bsAb in solution
T2 construct: Captured on HIS1K sensors in the Octet assay; also called human GPC3 antigen; Glypican 3; not shown: His tag
T2 sequence (P51654 25-559 limits assumed): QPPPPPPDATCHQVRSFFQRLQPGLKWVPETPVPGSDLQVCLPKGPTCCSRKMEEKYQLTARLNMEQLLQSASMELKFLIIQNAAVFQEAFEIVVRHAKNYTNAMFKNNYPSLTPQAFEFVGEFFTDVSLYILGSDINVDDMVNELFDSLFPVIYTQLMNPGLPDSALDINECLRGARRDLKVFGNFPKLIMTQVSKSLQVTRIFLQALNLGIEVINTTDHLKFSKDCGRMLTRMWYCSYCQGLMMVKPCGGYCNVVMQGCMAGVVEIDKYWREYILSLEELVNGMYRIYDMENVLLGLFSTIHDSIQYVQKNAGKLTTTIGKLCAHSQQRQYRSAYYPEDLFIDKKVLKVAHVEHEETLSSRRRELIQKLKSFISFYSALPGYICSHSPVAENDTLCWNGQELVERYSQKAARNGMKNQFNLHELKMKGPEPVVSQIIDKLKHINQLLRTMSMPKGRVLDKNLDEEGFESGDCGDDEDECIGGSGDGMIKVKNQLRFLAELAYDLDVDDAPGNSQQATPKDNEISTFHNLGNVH
Experimental: (§1) After humanization, GPC3 binding arms were engineered with single point mutations in the variable light domain with the aim to create a ladder of GPC3 binding affinity, illustrative sequences for which are depicted in FIG. 13. 73 variable light domain variants were engineered and paired with GPC3-A H1.1 (see Example 3C for description of GPC3-A H1.1 variant). The GPC3-A variants were engineered in the 1+1 Fab-scFv-Fc bsAb format and binding for GPC3 antigen was measured using Octet, a BioLayer Interferometry (BLI)-based method. Experimental steps for Octet generally include the following: Immobilization (capture of ligand to a biosensor); Association (dipping of ligand-coated biosensors into wells containing the analyte); and Dissociation (returning of biosensors to well containing buffer). For ease of clinical development (e.g. by investigating the therapeutics in model animals), it is useful for the binding domains to be cross-reactive for cynomolgus antigen; therefore, binding to both human and cynomolgus GPC3 antigen were investigated. His-tagged human and cynomolgus GPC3 were captured on HIS1K sensors then dipped into multiple concentrations of the bispecific antibodies. The resulting dissociation constant (KD) are depicted in FIG. 23.

His-tagged human GPC3 [3] = biological target: T2, His-tagged human GPC3; assay: affinity label of the GPC3 binding domain; Octet (BLI) of Example 2
Experimental: as §1

His-tagged human GPC3 [4] = biological target: T2, His-tagged human GPC3; assay: binding assay not named for this figure; Octet (BLI) is the method of Example 2B
Experimental: as §1

[5] = biological target: T3, His-tagged cynomolgus GPC3 (cynomolgus, UniProt A0A2K5VK50 24-558); assay: as above
T3 construct: Captured on HIS1K sensors in the Octet assay; also called cynomolgus GPC3 antigen; cyno GPC3; not shown: His tag
Experimental: as §1

[6] = biological target: T1, cell surface GPC3 on GPC3-expressing …; assay: flow cytometry on HepG2 (GPC3high) cells, anti-human Fc secondary
Experimental: (§2) Next, binding of the variants to cell surface GPC3 was investigated. Illustrative affinity variants H1.1_L1.29, H1.1_L1.16, and H1.1_L1.31 were engineered in the 1+1 Fab-scFv-Fc format. […] Cells were then washed and stained with a secondary antibody (typically anti-human Fc AlexaFlour647) for 1 hr at 4° C. After 2 more washes, cells were analyzed by flow cytometry.

[7] = biological target: T1, cell surface GPC3 on GPC3-expressing …; assay: flow cytometry on HepG2 (GPC3high) cells, secondary antibody stain
Experimental: as §2

T1 sequence (P51654 25-554 limits assumed): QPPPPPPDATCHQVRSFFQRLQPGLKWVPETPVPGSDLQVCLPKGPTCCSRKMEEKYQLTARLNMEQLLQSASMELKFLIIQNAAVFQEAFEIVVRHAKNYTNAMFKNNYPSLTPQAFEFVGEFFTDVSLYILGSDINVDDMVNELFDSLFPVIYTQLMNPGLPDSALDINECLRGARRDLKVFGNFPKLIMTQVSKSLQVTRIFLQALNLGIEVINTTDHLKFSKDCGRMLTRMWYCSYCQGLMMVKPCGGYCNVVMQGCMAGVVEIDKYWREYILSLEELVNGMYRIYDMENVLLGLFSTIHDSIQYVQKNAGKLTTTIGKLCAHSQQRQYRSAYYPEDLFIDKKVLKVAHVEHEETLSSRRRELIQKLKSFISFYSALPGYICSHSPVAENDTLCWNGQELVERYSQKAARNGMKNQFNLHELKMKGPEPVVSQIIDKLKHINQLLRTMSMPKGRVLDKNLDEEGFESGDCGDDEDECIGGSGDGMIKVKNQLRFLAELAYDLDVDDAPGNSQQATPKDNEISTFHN

B1: XENP34920 (bispecific antibody)
heavy 1: QVQLVQSGAEVKKPGASVKVSCKASGYTFTDYEMHWVRQAPGQGLEWMGALEPKTGDTAYSQKFQGRVTMTADKSISTAYMELSRLRSDDTAVYYCTRFYSYTYWGQGTLVTVSSASTKGPSVFPLAPSSKSTSGGTAALGCLVKDYFPEPVTVSWNSGALTSGVHTFPAVLQSSGLYSLSSVVTVPSSSLGTQTYICNVNHKPSDTKVDKKVEPKSCDKTHTCPPCPAPPVAGPSVFLFPPKPKDTLMISRTPEVTCVVVDVKHEDPEVKFNWYVDGVEVHNAKTKPREEEYNSTYRVVSVLTVLHQDWLNGKEYKCKVSNKALPAPIEKTISKAKGQPREPQVYTLPPSREEMTKNQVSLTCDVSGFYPSDIAVEWESDGQPENNYKTTPPVLDSDGSFFLYSKLTVDKSRWEQGDVFSCSVMHEALHNHYTQKSLSLSPGK
heavy 2: QVQLVQSGAEVKKPGASVKVSCKASGYTFTDYEMHWVRQAPGQGLEWMGALEPKTGDTAYSQKFQGRVTMTADKSISTAYMELSRLRSDDTAVYYCTRFYSYTYWGQGTLVTVSSASTKGPSVFPLAPSSKSTSGGTAALGCLVKDYFPEPVTVSWNSGALTSGVHTFPAVLQSSGLYSLSSVVTVPSSSLGTQTYICNVNHKPSNTKVDKKVEPKSCGGGGSGGGGSQAVVTQEPSLTVSPGGTVTLTCGSSTGAVTTSNYANWVQQKPGKSPRGLIGGTNKRAPGVPARFSGSLLGGKAALTISGAQPEDEADYYCALWYSNHWVFGGGTKLTVLGKPGSGKPGSGKPGSGKPGSEVQLVESGGGLVQPGGSLRLSCAASGFTFSTYAMNWVRQAPGKGLEWVGRIRSKANNYATYYADSVKGRFTISRDDSKNTLYLQMNSLRAEDTAVYYCVRHGNFGDSYVSWFAYWGQGTLVTVSSGGGGSGGGGSKTHTCPPCPAPPVAGPSVFLFPPKPKDTLMISRTPEVTCVVVDVKHEDPEVKFNWYVDGVEVHNAKTKPREEQYNSTYRVVSVLTVLHQDWLNGKEYKCKVSNKALPAPIEKTISKAKGQPREPQVYTLPPSREQMTKNQVKLTCLVKGFYPSDIAVEWESNGQPENNYKTTPPVLDSDGSFFLYSKLTVDKSRWQQGNVFSCSVMHEALHNHYTQKSLSLSPGK
light: DVVMTQSPLSLPVTLGQPASISCRSSQSLVHSSGNTYLHWYQQRPGQSPRLLIYKVSNRFSGVPDRFSGSGSGTDFTLKISRVEAEDVGVYFCSQSTHVPPTFGSGTKLEIKRTVAAPSVFIFPPSDEQLKSGTASVVCLLNNFYPREAKVQWKVDNALQSGNSQESVTEQDSKDSTYSLSSTLTLSKADYEKHKVYACEVTHQGLSSPVTKSFNRGEC
B1 was tested, and the “EC50 of RTCC (2D RTCC on Incucyte, HepG2, 10:1 effector:target ratio)” value [1] was less than 0.1 µg/mL.

B2: XENP36941 (GPC3-A H1.1_L1.29 formatted as 1+1 Fab-scFv-Fc with CD3 High-Int #1 scFv) (bispecific antibody)
heavy: B1 heavy 1
scFv-Fc: not shown
light: B1 light with S33N, K55Q, S96N
notes: 1+1 Fab-scFv-Fc, human IgG1 heterodimeric backbone; treated as one molecule; also called [GPC3]H1.1_L1.29
With B2 the Kd (His-tagged human GPC3 [2]) was 70 nM.

B3: GPC3-A H1.1_L1.73 in the 1+1 Fab-scFv-Fc bsAb format (bispecific antibody)
heavy: B1 heavy 1
scFv-Fc: not shown
light: B1 light with S33N, G34K, K55Y, S96N
notes: also called [GPC3]H1.1_L1.73
B3 showed a Kd (His-tagged human GPC3 [3]) of 400 nM, a Kd (His-tagged human GPC3 [4]) of 477 nM and a Kd [5] of 550 nM.

B4: GPC3-A H1.1_L1.69 in the 1+1 Fab-scFv-Fc bsAb format (bispecific antibody)
heavy: B1 heavy 1
scFv-Fc: not shown
light: B1 light with S33N, G34A, K55Q, S96N
notes: also called [GPC3]H1.1_L1.69
B4 gave a Kd (His-tagged human GPC3 [3]) of 70 nM, a Kd (His-tagged human GPC3 [4]) of 150 nM and a Kd [5] of 150 nM.

B5: XENP35843 (GPC3-A H1.1_L1.16 formatted as 1+1 Fab-scFv-Fc with CD3 High-Int #1 scFv) (bispecific antibody)
heavy: B1 heavy 1
scFv-Fc: not shown
light: B1 light
notes: 1+1 Fab-scFv-Fc, human IgG1 heterodimeric backbone; treated as one molecule; also called [GPC3]H1.1_L1.16
For B5, the Kd (His-tagged human GPC3 [2]) was 100 nM.

B6: XENP36140 (GPC3-A H1.1_L1.31 formatted as 1+1 Fab-scFv-Fc with CD3 High-Int #1 scFv) (bispecific antibody)
heavy: B1 heavy 1
scFv-Fc: not shown
light: B1 light with S33N, K55Y, S96N
notes: 1+1 Fab-scFv-Fc, human IgG1 heterodimeric backbone; treated as one molecule; also called [GPC3]H1.1_L1.31
For B6, the Kd (His-tagged human GPC3 [2]) was 400 nM, the “EC50 (read off the curve)” value [6] was roughly 3 µg/mL and the “EC50 (read off the curve)” value [7] was roughly 3 µg/mL.

B7: GPC3-A H1.1_L1.6 formatted as 1+1 Fab-scFv-Fc with CD3 High-Int #1 scFv (bispecific antibody)
heavy: B1 heavy 1
scFv-Fc: not shown
light: B1 light with S33N, G34T, S96N
notes: 1+1 Fab-scFv-Fc: VH-CH1-hinge-CH2-CH3 chain and VL-CL light chain form the GPC3 Fab, plus an scFv-Fc chain; also called [GPC3]H1.1_L1.6
Work on B7 yielded a Kd (His-tagged human GPC3 [2]) of 4 nM.

— patent US20240034815A1 (Xencor, published 2024)
